Values of other authors in paper PMC11720126.
Where two headings read alike, the source gives them in different places.

How the values were obtained:
[1] = target: Calmodulin (Homo sapiens) (UniProt P0DP23)
[2] = target: Calmodulin (Homo sapiens) (UniProt P0DP23); remark: listed apart in the source
[3] = target: Calmodulin (Homo sapiens) (UniProt P0DP23); remark: listed apart in the source
[4] = target: Calmodulin (Homo sapiens) (UniProt P0DP23); remark: listed apart in the source

Row | Kd [1] | Kd [2] | Kd [3] | Kd [4] | Substance
1 | 0.9 µM | 150 µM |  |  | STIM2 PBD (from UniProt Q9P246)
2 |  |  | 55 µM | 0.8 µM | STIM1 PBD (from UniProt Q13586)
